The results in this text go back to paper PMC4529816 (Molecular cancer therapeutics, 2015).

In this assay the target is T1, GAL4^DBD-SIN3B (UniProt O75182 1-1162).
T1 sequence (looked up): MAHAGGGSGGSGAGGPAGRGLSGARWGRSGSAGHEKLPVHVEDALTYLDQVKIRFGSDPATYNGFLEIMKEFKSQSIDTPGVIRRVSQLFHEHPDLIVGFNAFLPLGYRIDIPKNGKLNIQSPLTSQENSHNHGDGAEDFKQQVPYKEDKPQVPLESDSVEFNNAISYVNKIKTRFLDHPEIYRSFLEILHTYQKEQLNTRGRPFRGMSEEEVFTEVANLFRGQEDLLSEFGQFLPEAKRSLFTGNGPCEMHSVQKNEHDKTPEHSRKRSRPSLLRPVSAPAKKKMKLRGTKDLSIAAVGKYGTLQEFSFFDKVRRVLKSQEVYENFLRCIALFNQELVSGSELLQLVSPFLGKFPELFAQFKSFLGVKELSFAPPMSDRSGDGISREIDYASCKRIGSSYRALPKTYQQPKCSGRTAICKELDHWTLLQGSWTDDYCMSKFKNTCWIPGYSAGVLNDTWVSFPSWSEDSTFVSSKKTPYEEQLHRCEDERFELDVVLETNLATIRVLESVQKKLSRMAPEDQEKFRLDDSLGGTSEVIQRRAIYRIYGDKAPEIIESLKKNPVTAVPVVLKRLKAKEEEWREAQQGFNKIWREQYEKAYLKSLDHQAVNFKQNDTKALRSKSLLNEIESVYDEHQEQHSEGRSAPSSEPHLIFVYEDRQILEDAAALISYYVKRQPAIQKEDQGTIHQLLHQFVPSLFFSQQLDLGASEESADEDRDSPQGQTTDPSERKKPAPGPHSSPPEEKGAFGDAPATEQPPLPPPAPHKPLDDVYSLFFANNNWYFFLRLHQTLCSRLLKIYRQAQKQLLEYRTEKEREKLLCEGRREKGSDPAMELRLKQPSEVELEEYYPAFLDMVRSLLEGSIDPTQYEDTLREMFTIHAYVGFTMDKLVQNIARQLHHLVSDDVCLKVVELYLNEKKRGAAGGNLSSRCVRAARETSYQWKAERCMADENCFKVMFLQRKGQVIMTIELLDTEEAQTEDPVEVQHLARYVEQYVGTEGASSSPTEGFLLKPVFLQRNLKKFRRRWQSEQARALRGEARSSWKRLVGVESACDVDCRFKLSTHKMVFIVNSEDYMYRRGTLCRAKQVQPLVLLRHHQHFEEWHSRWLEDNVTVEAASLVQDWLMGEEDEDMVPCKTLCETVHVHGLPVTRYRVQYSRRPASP
The experiment in a line: two-hybrid.

B1: VP16^AD-MAD (natural protein, UniProt Q05195 1-221, looked up)
chain: MAAAVRMNIQMLLEAADYLERREREAEHGYASMLPYNNKDRDALKRRNKSKKNNSSSRSTHNEMEKNRRAHLRLCLEKLKGLVPLGPESSRHTTLSLLTKAKLHIKKLEDCDRKAVHQIDQLQREQRHLKRQLEKLGIERIRMDSIGSTVSSERSDSDREEIDVDVESTDYLTGDLDWSSSSVSDSDERGSMQSLGSDEGYSSTSIKRIKLQDSHKACLGL
For the molecule B1, the “fold decrease in luciferase activity against the empty vectors” value amounted to 3.7 fold.
